The record followed here is US20080261241A1, “Targeted ubiquitination of proteins and screening methods using a new class of ubiquitin ligase proteins” (INSTITUT PASTEUR, priority 2007, published 2008).

Data set [1] relates to proteasome. The experiment in a line: Proteasome inhibition: Ste7 disappearance in MG132-permeable erg6 mutant. In kind it is cell-based, Saccharomyces cerevisiae. The note with it: MG132 100 μM, 2 h. How it is done:
To test if the IpaH-mediated disappearance of Ste7 required proteasome function, a yeast strain carrying the cim5-1 allele encoding a component of the 26-S proteasome that is functional at 25° C. but not at 37° C. (Ghislain et al., 1993) was used. […] (FIG. 3A). […] Thus, the disappearance of Ste7 promoted by IpaH9.8 is proteasome-dependent.
Standard media and techniques were used for transformation, maintenance, and growth of yeast (Guthrie C, 1991). Halo assays were performed as described (Hoffman et al., 2002) using disks impregnated with 15 μg of α-factor. erg6 ? yeast were transformed with plasmids encoding IpaH9.8 or IpaH9.8-C337A and grown in selective media containing 1% raffinose to mid log phase. Following addition of MG132 (100 μM) and galactose (2%), cultures were incubated for 2 h and cell extracts were prepared as described (Wang et al., 2003). β-Galactosidase assays were performed as described (Guarente, 1983).

Data set [2] concerns sst2Δ cells. Description: Growth of sst2Δ yeast in the presence of pheromone. It counts as cell-based, Saccharomyces cerevisiae. The note with it: galactose-induced production, α-factor plates.
Data set [3] deals with His-tagged UbcH5B, P62837.

Peptide text beside a SMILES is read from it. * marks the point of attachment. Cbz = O=C(OCc1ccccc1)*

His-tagged UbcH5B, P62837, sequence (P62837 whole entry, looked up): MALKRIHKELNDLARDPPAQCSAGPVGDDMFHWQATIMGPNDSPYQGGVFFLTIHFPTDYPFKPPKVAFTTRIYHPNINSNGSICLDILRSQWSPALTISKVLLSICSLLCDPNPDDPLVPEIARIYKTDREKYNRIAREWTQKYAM

For `CC(C)C[C@@H](C=O)NC(=O)[C@H](CC(C)C)NC(=O)[C@H](CC(C)C)NC(=O)OCc1ccccc1` [MG132] (Cbz-Leu-Leu-Leu-aldehyde), in data set [1], the “disappearance of Ste7 provoked by IpaH9.8” value is recorded as “prevented the disappearance of Ste7”.

B1: IpaH7.8: another IpaH family member from Shigella (protein, UniProt P18014 1-565, looked up)
E3 ubiquitin-protein ligase …: MFSVNNTHSSVSCSPSINSNSTSNEHYLRILTEWEKNSSPGEERGIAFNRLSQCFQNQEAVLNLSDLNLTSLPELPKHISALIVENNKLTSLPKLPAFLKELNADNNRLSVIPELPESLTTLSVRSNQLENLPVLPNHLTSLFVENNRLYNLPALPEKLKFLHVYYNRLTTLPDLPDKLEILCAQRNNLVTFPQFSDRNNIRQKEYYFHFNQITTLPESFSQLDSSYRINISGNPLSTRVLQSLQRLTSSPDYHGPQIYFSMSDGQQNTLHRPLADAVTAWFPENKQSDVSQIWHAFEHEEHANTFSAFLDRLSDTVSARNTSGFREQVAAWLEKLSASAELRQQSFAVAADATESCEDRVALTWNNLRKTLLVHQASEGLFDNDTGALLSLGREMFRLEILEDIARDKVRTLHFVDEIEVYLAFQTMLAEKLQLSTAVKEMRFYGVSGVTANDLRTAEAMVRSREENEFTDWFSLWGPWHAVLKRTEADRWAQAEEQKYEMLENEYSQRVADRLKASGLSGDADAEREAGAQVMRETEQQIYRQLTDEVLALRLSENGSRLHHS
Regarding B1, the “growth of sst2Δ cells in the presence of pheromone” value in data set [2] was “rescued the pheromone-induced growth arrest of sst2Δ cells”.

B2: GST-IpaH9.8 (protein)
chain: MLPINNNFSLPQNSFYNTISGTYADYFSAWDKWEKQALPGEERDEAVSRLKECLINNSDELRLDRLNLSSLPDNLPAQITLLNVSYNQLTNLPELPVTLKKLYSASNKLSELPVLPPALESLQVQHNELENLPALPDSLLTMNISYNEIVSLPSLPQALKNLRATRNFLTELPAFSEGNNPVVREYFFDRNQISHIPESILNLRNECSIHISDNPLSSHALQALQRLTSSPDYHGPRIYFSMSDGQQNTLHRPLADAVTAWFPENKQSDVSQIWHAFEHEEHANTFSAFLDRLSDTVSARNTSGFREQVAAWLEKLSASAELRQQSFAVAADATESCEDRVALTWNNLRKTLLVHQASEGLFDNDTGALLSLGREMFRLEILEDIARDKVRTLHFVDEIEVYLAFQTMLAEKLQLSTAVKEMRFYGVSGVTANDLRTAEAMVRSREENEFTDWFSLWGPWHAVLKRTEADRWAQAEEQKYEMLENEYPQRVADRLKASGLSGDADAEREAGAQVMRETEQQIYRQLTDEVLALRLSENGSQLHHS
Turning to B2, the “removal of ubiquitin from ubiquitinated UbcH5B, immunoblot with streptavidin-peroxidase” value in data set [3] is reported as “after ubiquitination of UbcH5B, addition of GST-IpaH9.8 to the reaction mixture promoted the removal of ubiquitin from UbcH5B”.

B3: GST-SspH1 (protein)
chain: EFMLPINNNFSLPQNSFYNTISGTYADYFSAWDKWEKQALPGEERDEAVSRLKECLINNSDELRLDRLNLSSLPDNLPAQITLLNVSYNQLTNLPELPVTLKKLYSASNKLSELPVLPPALESLQVQHNELENLPALPDSLLTMNISYNEIVSLPSLPQALKNLRATRNFLTELPAFSEGNNPVVREYFFDRNQISHIPESILNLRNECSIHISDNPLSSHALQALQRLTSSPDYHGPRIYFSMSDGQQNTLHRPLADAVTAWFPENKQSDVSQIWHAFEHEEHANTFSAFLDRLSDTVSARNTSGFREQVAAWLEKLSASAELRQQSFAVAADATESCEDRVALTWNNLRKTLLVHQASEGLFDNDTGALLSLGREMFRLEILEDIARDKVRTLHFVDEIEVYLAFQTMLAEKLQLSTAVKEMRFYGVSGVTANDLRTAEAMVRSREENEFTDWFSLWGPWHAVLKRTEADRWAQAEEQKYEMLENEYPQRVADRLKASGLSGDADAEREAGAQVMRETEQQIYRQLTDEVLALRLFENGSQLHHS
On to B3, for which the “removal of ubiquitin from ubiquitinated UbcH5B” value in data set [3] was “SspH1 was endowed with the activities (i) to remove ubiquitin from ubiquitinated UbcH5B”.
